This is an account of results in the RNAGym collection of RNA variant scans (doi:10.1093/molbev/msab373).

The chains are these.
B1: Azoarcus group I ribozyme (parent)
chain: GUGCCUUGCGCCGGGAAACCACGCAAGGGAUGGUGUCAAAUUCGGCGAAACCUAAGCGCCCGCCCGGGCGUAUGGCAACGCCGAGCCAAGCUUCGGCGCCUGCGCCGAUGAAGGUGUAGAGACUAGACGGCACCCACCUAAGGCAAACGCUAUGGUGAAGGCAUAGUCCAGGGAGUGGCGAAAGUCACACAAACCGG

Variants of B1 are the subject of this series. In words: reverse-splicing fitness (ratio to wild type); higher = more active; in vitro selection; Mg2+ level not given. The method in brief:
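An in vitro group I ribozyme library with randomized positions was T7-transcribed and gel-purified. In triplicate, 10 pmol RNA in EPPS pH 7.5 was reacted with 50 pmoles of a 30-nt RNA substrate for 1 h at 37 °C across several added MgCl2 levels (1–48 mM), then stopped with EDTA. Products were reverse transcribed from a substrate-complementary primer, PCR-amplified and sequenced (HiSeq 4000). Fitness is a variant's read proportion after selection over that before, normalised to wild type.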
C82U A111U A120U A145U C150G: the reverse-splicing fitness came to 0.00727. In the case of C82U A111U A120U A145U C150A, the reverse-splicing fitness is 0.00625. With C82U A111U A120U A145U C150U, the reverse-splicing fitness is 0.0175. Turning to C82U A111U A145C C150G C169A, the reverse-splicing fitness turned out to be 0.00853.

With C82U A111U A145C C150G C169G, the reverse-splicing fitness was determined as 0.0072.

With C82U A111U A145C C150G C169U, the reverse-splicing fitness was determined as 0.00864. Consider C82U A111U A120U C150G C169A U176G, for which the reverse-splicing fitness is 0.00272. To C82U A111U A120U C150G C169A U176A belongs 0.004; to C82U A111U A120U C150G C169A U176C, 0.00404; to C82U A111U A120U A145C C150G C169U U176G, 0.00218.

In the case of C82U A111U A120U A145C C150G C169U U176C, the reverse-splicing fitness was determined as 0.0022. Turning to C82U A111U A120U C150U C169G, the reverse-splicing fitness was determined as 0.00465. To C82U A111U A120U C150U C169A belongs 0.00397. In the case of C82U A111U A120U C150U C169U, the reverse-splicing fitness came to 0.00426. On to C82U A111U A120U C150A, for which the reverse-splicing fitness worked out at 0.00701.

For the variant C82U A111U A120U C150U, the reverse-splicing fitness was 0.0175. For C82U A111U A120U C150G, the reverse-splicing fitness is 0.00645. As to C82U A111U A145G C150A C169U U176A, the reverse-splicing fitness came to 0.016. With C82U A111U A145G C150A C169U U176G, the reverse-splicing fitness came out at 0.00658.

C82U A111U A145G C150A C169U U176C: the reverse-splicing fitness worked out at 0.0133. Consider C82U A111U A145C C150A C169G, for which the reverse-splicing fitness is 0.00741. For the variant C82U A111U A145C C150A C169U, the reverse-splicing fitness was 0.00873. Turning to C82U A111U A145C C150A C169A, the reverse-splicing fitness was 0.00809. Next, C82U A111U A145C C150A C169G U176C: 0.0138; C82U A111U A145C C150A C169G U176G: 0.00573. With C82U A111U A145C C150A C169G U176A, the reverse-splicing fitness worked out at 0.0228.

Regarding C82U A111U A145G, the reverse-splicing fitness was determined as 0.332.

C82U A111U A145C: the reverse-splicing fitness stood at 0.295.

Regarding C82U A111U A120U A145G C169G U176C, the reverse-splicing fitness is 0.0035. Next, C82U A111U A120U A145G C169G U176A: 0.00271; C82U A111U A120U A145G C169G U176G: 0.00146; C82U A111U A120U A145U C150U C169G U176A: 0.00276. Next, C82U A111U A120U A145U C150U C169G U176G: 0.00202; C82U A111U A120U A145U C150U C169G U176C: 0.00317; C82U A111U A120U A145U C169G U176G: 0.00176. On to C82U A111U A120U A145U C169G U176C, for which the reverse-splicing fitness is 0.00286. Consider C82U A111U A120U A145U C169G U176A, for which the reverse-splicing fitness is 0.00244. To C82U A111U A145G C150A U176A belongs 0.0215; to C82U A111U A145G C150A U176G, 0.00953. For C82U A111U A145G C150A U176C, the reverse-splicing fitness was determined as 0.0426. For the variant C82U A111U A120U A145G C150A C169G, the reverse-splicing fitness is 0.00478. In the case of C82U A111U A120U A145G C150A C169A, the reverse-splicing fitness was determined as 0.00571. C82U A111U A120U A145G C150A C169U: the reverse-splicing fitness was found to be 0.00374. Regarding C82U A111U A145G C150A C169A, the reverse-splicing fitness stood at 0.00979. Take C82U A111U A145G C150A C169G: the reverse-splicing fitness stood at 0.00847. Take C82U A111U A145G C150A C169U: the reverse-splicing fitness was found to be 0.0105.

For the variant C82U A111U A120U A145G C150G C169U U176C, the reverse-splicing fitness came out at 0.0058. On to C82U A111U A120U A145G C150G C169U U176G, for which the reverse-splicing fitness turned out to be 0.00345. On to C82U A111U A120U A145G C150G C169U U176A, for which the reverse-splicing fitness stood at 0.00611. Next, C82U A111U A120U A145U: 0.0252; C82U A111U A120U A145G: 0.0251; C82U A111U A120U A145C C169A: 0.00225. On to C82U A111U A120U A145C C169G, for which the reverse-splicing fitness came out at 0.00316. As to C82U A111U A120U A145C C169U, the reverse-splicing fitness was 0.00314.

Regarding C82U A111U A120U A145U C150U C169U U176C, the reverse-splicing fitness was 0.00392.

C82U A111U A120U A145U C150U C169U U176A: the reverse-splicing fitness was found to be 0.00293.

For C82U A111U A120U A145U C150U C169U U176G, the reverse-splicing fitness was 0.00227.

On to C82U A111U A120U A145C C150G U176A, for which the reverse-splicing fitness worked out at 0.00287. As for C82U A111U A120U A145C C150G U176C, the reverse-splicing fitness was 0.00408. As for C82U A111U A120U A145C C150G U176G, the reverse-splicing fitness was determined as 0.00213. As for C82U A111U A120U A145G C150U C169U, the reverse-splicing fitness worked out at 0.00435.

On to C82U A111U A120U A145G C150U C169A, for which the reverse-splicing fitness was 0.00562. To C82U A111U A120U A145G C150U C169G belongs 0.0051; to C82U A111U A120U A145G C150G, 0.00817. C82U A111U A120U A145G C150U: the reverse-splicing fitness came out at 0.022. To C82U A111U A120U A145G C150A belongs 0.00852. As for C82U A111U A120U A145U C150G C169A U176C, the reverse-splicing fitness was 0.00272. For C82U A111U A120U A145U C150G C169A U176A, the reverse-splicing fitness came to 0.0028. Take C82U A111U A120U A145U C150G C169A U176G: the reverse-splicing fitness is 0.00213. As to C82U A111U A120U A145C C169A U176G, the reverse-splicing fitness worked out at 0.00173.

As to C82U A111U A120U A145C C169A U176C, the reverse-splicing fitness was 0.00199. To C82U A111U A120U A145C C169A U176A belongs 0.00226. On to C82U A111U A120U A145G C150U C169U U176C, for which the reverse-splicing fitness amounted to 0.00399. On to C82U A111U A120U A145G C150U C169U U176A, for which the reverse-splicing fitness came out at 0.00396. As to C82U A111U A120U A145G C150U C169U U176G, the reverse-splicing fitness is 0.00209. Consider C82U A111U A120U C150U C169U U176A, for which the reverse-splicing fitness amounted to 0.00527. To C82U A111U A120U C150U C169U U176G belongs 0.00244.

With C82U A111U A120U C150U C169U U176C, the reverse-splicing fitness was found to be 0.0041. As to C82U A111U A120U A145U C150G C169U U176C, the reverse-splicing fitness was 0.00272. Regarding C82U A111U A120U A145U C150G C169U U176A, the reverse-splicing fitness came out at 0.00242.

Take C82U A111U A120U A145U C150G C169U U176G: the reverse-splicing fitness came to 0.0024. Take C82U A111U A145C C150G U176G: the reverse-splicing fitness came out at 0.00423. For the variant C82U A111U A145C C150G U176A, the reverse-splicing fitness is 0.00994.
